Results as given in the supplement of paper PMC12764529.
± gives the half width of the 95% confidence interval.

Assays:
[1] = folding stability dG unfold from trypsin proteolysis; higher = more stable
How it was run: (§1)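 Only designs with AlphaFold2 dimer inter-PAE above 15 were retained; each was a mini-protein under 80 residues with no cysteine, in a PA-tagged cDNA display construct. After digestion with trypsin and chymotrypsin and sequencing, K50 was inferred by Bayesian fitting of counts, and unfolding free energy was derived per protease or combined against a sequence-predicted unfolded-state K50 and a shared folded-state K50.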

[2] = folding stability dG unfold from chymotrypsin proteolysis; higher = more stable
How it was run: as §1

[3] = folding stability dG unfold (combined trypsin and chymotrypsin); higher = more stable
How it was run: as §1

| Sequence | folding stability dG unfold [1] | folding stability dG unfold [2] | folding stability dG unfold [3] |
| --- | --- | --- | --- |
| SAGGSAGGSAMPKTTVYTIPYESDEEAEARIEEIKAEARARNPEAKVTVTPAGESVNVTIVGSAGGSAGGSA [r18_469_JUSTAS] | -0.7 ± 0.34 kcal/mol | -0.116 ± 0.19 kcal/mol | -0.376 ± 0.2 kcal/mol |
| SAGGSAGGSAMPLTSPEEAARHIKEALERLFPSSFPDRVIDPDVVVFTRPDGRVVALVKLKASAGGSAGGSA [r18_440_TrMRF] | 0.877 ± 0.023 kcal/mol | 1.27 ± 0.073 kcal/mol | 1.11 ± 0.068 kcal/mol |
| SAGGSAGGSAMPVKVKVTVKARFGDKEFELEFEIEVGPGATEEDIKNLVTEKYPGFEEVELESAGGSAGGSA [r18_195_JUSTAS] | 1.92 ± 0.083 kcal/mol | 2.16 ± 0.11 kcal/mol | 2.16 ± 0.12 kcal/mol |
| SAGGSAGGSAMQRDPDGKPQPQVTFRIPADDMPEEQIKKHLPPEFADNFRDNMPEGDTITLSAGGSAGGSAG [r3_326_TrROS] | -0.688 ± 0.19 kcal/mol | -0.105 ± 0.25 kcal/mol | -0.239 ± 0.14 kcal/mol |
| SAGGSAGGSAMTFFVAVVKTETRVLPDGSLETRSSIEVKPVPAIPAEDLIKKLGLPLEDIASAGGSAGGSAG [r3_338_TrMRF] | 2.13 ± 0.041 kcal/mol | 3.14 ± 0.053 kcal/mol | 2.61 ± 0.14 kcal/mol |
| SAGGSAGGSAMTFKSPEEAKKAAEELEKKTGYKIKITKIEVNEDGEKTVKIEILPPGEKLKSAGGSAGGSAG [r3_59_TrROS_Hall] | -0.238 ± 0.092 kcal/mol | 0.544 ± 0.12 kcal/mol | 0.284 ± 0.1 kcal/mol |
| SAGGSAGGSAMTIKVEVTVKVKVKLENGETKEKEVKVTVEIELPPLTKEELEKNKELLKKLLSAGGSAGGSA [r18_114_TrROS_Hall] | 2.42 ± 0.14 kcal/mol | 2.53 ± 0.08 kcal/mol | 2.42 ± 0.16 kcal/mol |
| SAGGSAGGSAMTPDETRTVVVEEELPNGEPVVRVTDVRTLPDGSLETLGERVITREELEERSAGGSAGGSAG [r3_212_JUSTAS] | -0.438 ± 0.2 kcal/mol | 0.743 ± 0.064 kcal/mol | 0.394 ± 0.11 kcal/mol |
| SAGGSAGGSAMTPEELLKAAEELAKKLNLKVEIEVKKNENGELTITVKVYKNGKLVKEFEIKSAGGSAGGSA [r18_369_TrROS_Hall] | 3.06 ± 0.089 kcal/mol | 4.9 ± 0.11 kcal/mol | 4.82 ± 0.16 kcal/mol |
| SAGGSAGGSAMTPETIKEKYPNVDYSPSPLGGKTVYTFTFPSGSTVTVTFNPGSATITTIAGSAGGSAGGSA [r18_13_JUSTAS] | 2.26 ± 0.13 kcal/mol | 3.38 ± 0.07 kcal/mol | 2.96 ± 0.11 kcal/mol |
| SAGGSAGGSAMTVSIPPEVITSVEYDPSTNKVTITPSDGSVKTYDVESPEEVFKANNIGPESAGGSAGGSAG [r3_34_JUSTAS] | 0.887 ± 0.044 kcal/mol | 0.648 ± 0.11 kcal/mol | 0.753 ± 0.095 kcal/mol |
| SAGGSAGGSAMTVTITHDVPPDVSVTVTVTSNNKKIPVSTPSRAASATIPSSEVSSLEIVPSSAGGSAGGSA [r18_170_JUSTAS] | -0.362 ± 0.29 kcal/mol | 0.792 ± 0.043 kcal/mol | 0.496 ± 0.12 kcal/mol |
| SAGGSAGGSAMVIEDPKTNKLIEVEKLPDGTYKVTIYDKKTGEKKTITMSKKDLEKLLKALSAGGSAGGSAG [r3_162_TrROS_Hall] | 4.91 ± 0.44 kcal/mol | 4.78 ± 0.14 kcal/mol | 4.81 ± 0.36 kcal/mol |
| SAGGSAGGSAMVILTPDGYLKVIKSITVEEALDPETDEPVLDVKAEVEVIPLPSLDDPAFKESAGGSAGGSA [r18_6_TrMRF] | 0.251 ± 0.076 kcal/mol | 0.447 ± 0.087 kcal/mol | 0.396 ± 0.24 kcal/mol |
